The RNAGym collection of RNA variant scans (doi:10.1073/pnas.2313332121)

B1: TPR t1 (parent)
chain: GACCAAUCUGCCCUCAGAGCUCGAGAACAUCUUCGGAUGCAGAGGAGGCAGGCUUCGGUGGCGCGAUAGCGCCAACGUCCUCAACCUCCAAUGCAUCCCACCACAUGAUGAUGCCUGAAGAGCCUUGGUUUUUUG

Variants of: B1
Assay: polymerase ribozyme fitness, log enrichment relative to wild type (log ratio); higher = more active; in vitro selection for triplet polymerase activity
In short: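 Streptavidin-bead capture of gel-excised extended constructs, followed by RT-PCR, closed a single triplicate in vitro selection round. That round began by annealing PCR-built, transcribed mutant libraries of each subunit of a heterodimeric triplet polymerase ribozyme with a biotinylated primer, the partner subunit and triplets, then incubating them frozen at −7 °C. After Illumina sequencing of inputs and outputs, genotypes needed ≥10 input reads and ≥1 read per output. Fitness is the base-2 logarithm of genotype enrichment over wild-type enrichment, using inverse-variance-weighted replicate averages.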

| Variant | polymerase ribozyme fitness (log ratio) |
| --- | --- |
| GACCAAUCUGCCCUCAGAGCUCGAGAACAUCUUCGGAUGCAGAGGAGGCAGGCUUCGGUGACGCGAUAGCGCCAACGUCCUCACCCUGCAAUGCAUCCCACCACAUGAUGAUGCCUGAAGAGCCUUGGUUUUUUG [G61A A84C C88G] | 0.0148 |
| GACCAAUCUGCCCUCAGAGCUCGAGAACAUCUUCGGAUGCAGAGGAGGCAGGCUUCGGUGAGGCGAUAGCGCCAGCGUCCUCAACCUCCAAUGCUUCCCACCACAUGAUGAUGCCUGAAGCGCCUUGGUUUUUUG [G61A C62G A75G A95U A121C] | -5.37 |
| GACCAAUCUGCCCUCAGAGCUCGAGAACAUCUUCGGAUGCAGAGGAGGCAGGCUUCGGUGACGCGAUAGCGCCAACGUCCUCAACCUCCAAUGCUUCCCACCACAUGAUGAUGCCUGAAGAGCCUUGGUUUUUUG [G61A A95U] | 0.338 |
| GACCAAUCUGCCCUCAGAGCUCGAGAACAUCUUCGGAUGCAGAGGAGGCAGGCUUCGGUUGCGCGAUAGCGCCAACGUCCUCAACCUCCAAUGCAUCCCACCACAUGAUGAUGCCUGAAGAGCCUUGGUAUUUUG [G60U U130A] | -0.92 |
| GACCAAUCUGCCCUCAGAGCUCGAGAACAUCUUCGGAUGCAGAGGAGGCAGGCUUCGGUUGCGCGAUAGCGCCAACGUCCUCAACCUCCAAUGCAUCCCACCACAUGAUGAUGCCUGAAGAGCCUUGGUGUUUUG [G60U U130G] | -0.482 |
| GACCAAUCUGCCCUCAGAGCUCGAGAACAUCUUCGGAUGCAGAGGAGGCAGGCUUCGGUGACGCGAUAGCGCCAACGUCCUCAACCUCCACUGCUUCCCACCACAUGAUUAUGCAUGAAGAGCCCUGGUCUUUUG [G61A A91C A95U G110U C115A U125C U130C] | -3.6 |
| GACCAAUCUGCCCUCAGAGCUCGAGAACAUCUUCGGAUGCAGAGGAGGCAGGCUUCGGUGACGCGAUAGUGCCAACGUCCUCAACCUCCAAUGCAUCCCACCACAUGAUGAUGCCUGAAGAGCCUUGGUUUUUUG [G61A C70U] | -0.854 |
| GACCAAUCUGCCCUCAGAGCUCGAGAACAUCUUCGGAUGCAGAGGAGGCAGGCUUCGGUGACGCGAUAGAGCCAACGUCCUCAACCUCCAAUGCAUCCCACCACAUGAUGAUGCCUGAAGAGCCUUGGUUUUUUG [G61A C70A] | -3.99 |
| GACCAAUCUGCCCUCAGAGCUCGAGAACAUCUUCGGAUGCAGAGGAGGCAGGCUUCGGUUGCGCGAUAGCGCCAACGUCCUCAACCUCCAAUGCAUCCCACCACAAGAUGAUGCCUGAAGAGCCUUGGUUUUUUG [G60U U106A] | -0.529 |
| GACCAAUCUGCCCUCAGAGCUCGAGAACAUCUUCGGAUGCAGAGGAGGCAGGCUUCGGUGACGCGUUAGCGCCAACGCCCUCAACCUCCAAUGCAUCCCACCACAUGAUGAUGCCUGGAGAGCCUUGGUUUUUUG [G61A A66U U78C A118G] | -1.83 |
| GACCAAUCUGCCCUCAGAGCUCGAGAACAUCUUCGGAUGCAGAGGAGGCAGGCUUCGGUUGCGCGAUAGCGCCAACGCCCUCAACCUCCCAUGCAUCCCACCACAUGAUGAUGCCUUAAGAGCCUUGGUUUUUUG [G60U U78C A90C G117U] | -4.13 |
| GACCAAUCUGCCCUCAGAGCUCGAGAACAUCUUCGGAUGCAGAGGAGGCAGGCUUCGGUGACGCGAUAGCGCCAACGUCCUCGACCUCCAAUGCAUCCCACCACAUGAUGAUGCCUGAAGAGCCUUGGUUUUUUG [G61A A83G] | -1.47 |
| GACCAAUCUGCCCUCAGAGCUCGAGAACAUCUUCGGAUGCAGAGGAGGCAGGCUUCGGUGACGCGAUAGCGCCAACGUCCUCCACCUCCAAUGCAUCCCACCACAUGAUGAUGCCUGAAGAGCCUUGGUUUUUUG [G61A A83C] | -0.418 |
| GACCAAUCUGCCCUCAGAGCUCGAGAACAUCUUCGGAUGCAGAGGAGGCAGGCUUCGGUUGCGCGAUAGCGCCAACGUCCUCAACCUCCAAUGCAUCCCACCACAUGAGGAUGCCUGAAGAGCCGUGGUGUUUUG [G60U U109G U125G U130G] | -5.39 |
| GACCAAUCUGCCCUCAGAGCUCGAGAACAUCUUCGGAUGCAGAGGAGGCAGGCUUCGGUGACGCGAUAGCGCCAACGUCCUCAACCUCCACUGCAACCCACCACAUGAUGAUGCCUGAAGAGCCUUGGUUUUUUG [G61A A91C U96A] | -1.49 |
| GACCAAUCUGCCCUCAGAGCUCGAGAACAUCUUCGGAUGCAGAGGAGGCAGGCUUCGGUUGCGCGAUAGCGCCAACGUCCACAACCUCCAAUGCAUCCCACCACAUGAUGAUGCCUGAAGAGCCUUGGUUUUUUG [G60U U81A] | -0.347 |
| GACCAAUCUGCCCUCAGAGCUCGAGAACAUCUUCGGAUGCAGAGGAGGCAGGCUUCGGUUGCGCGAUAGCGCCAACGUCCUCAACCUCCAAUGCAUCCCACCACAUGAUGAUGCCUGAAGAGCCUUGGAUUUUUG [G60U U129A] | -1.37 |
| GACCAAUCUGCCCUCAGAGCUCGAGAACAUCUUCGGAUGCAGAGGAGGCAGGCUUCGGUGACGCGAUAGCGCCUACGUCCUCAACCUCCAAUGCAUCCCACCACAUGAUGAUUCCUGAAGAGCCUUGGUUUUUUG [G61A A74U G113U] | -4.56 |
| GACCAAUCUGCCCUCAGAGCUCGAGAACAUCUUCGGAUGCAGAGGAGGCAGGCUUCGGUGACGCGAUAGCGCCAACGUCCUCCACCUCCAAUGCAUCCCACCACAUGAUUAUGCCUUAAGAGCCUUGGUUUUUUG [G61A A83C G110U G117U] | -5.13 |
| GACCAAUCUGCCCUCAGAGCUCGAGAACAUCUUCGGAUGCAGAGGAGGCAGGCUUCGGUGACGCGAUAGCGCCAACGUCCUCAUCCUCCAAUGCAUCCCACCACAUGAUGAUGCCUGAAGAGCCUUGGUUUUUUG [G61A A84U] | -0.89 |
| GACCAAUCUGCCCUCAGAGCUCGAGAACAUCUUCGGAUGCAGAGGAGGCAGGCUUCGGUGACGCGAUAGCGCUAAUGUCCUCAACCUCCAAUGCAUCCCACCACAUGAUGAUGCCUGAAGAGCCUUGGUUUUUUG [G61A C73U C76U] | -3.66 |

| Variant | polymerase ribozyme fitness (log ratio) |
| --- | --- |
| GACCAAUCUGCCCUCAGAGCUCGAGAACAUCUUCGGAUGCAGAGGAGGCAGGCUUCGGUGACGCGAUAGCGGCAACGUCCUCAACCUCCAAUGCAUCCCACCACAUGAUGAUGCCUGAAGAGCCUUGGUUUUUUG [G61A C72G] | 0.08 |
| GACCAAUCUGCCCUCAGAGCUCGAGAACAUCUUCGGAUGCAGAGGAGGCAGGCUUCGGUGACGCGAUAGCGCCAACGUCCUCAUCCUCCAAUCCAUCCCACCACAUGAUGAUGCCUGAAGAGCCUUGAUUUUUUG [G61A A84U G93C G128A] | -3.36 |
| GACCAAUCUGCCCUCAGAGCUCGAGAACAUCUUCGGAUGCAGAGGAGGCAGGCUUCGGUGACGCGAUAGCGCCUACGUCCUCAACCUCCAAUGCAUCCCAGCACAUGAUGAUGCCUGAACAGCCUUGGUUUUUUG [G61A A74U C101G G120C] | -2.7 |
| GACCAAUCUGCCCUCAGAGCUCGAGAACAUCUUCGGAUGCAGAGGAGGCAGGCUUCGGUGACGCGAUAGCGCCCACGUCCUCAACCUCCAAUGCAUCCCACCACAUGAUGAAGCCUGAAGAGCCUUGGUUUUUUG [G61A A74C U112A] | -2.06 |
| GACCAAUCUGCCCUCAGAGCUCGAGAACAUCUUCGGAUGCAGAGGAGGCAGGCUUCGGUUGCGCGAUAGCGCCAACGGACUCAACCUCCAAUGCAUCCCACCACAUGAUAAUGCCUGAAGAGCCUCGGUUUUUUG [G60U U78G C79A G110A U126C] | -4.68 |
| GACCAAUCUGCCCUCAGAGCUCGAGAACAUCUUCGGAUGCAGAGGAGGCAGGCUUCGGUGACGCGAUAGCGCAAACGUCCUCAACCUCCAAUGCAUCCCACCACAUGAUGAUGCCUGAAGAGCCUUGGUUUUUUG [G61A C73A] | -0.202 |
| GACCAAUCUGCCCUCAGAGCUCGAGAACAUCUUCGGAUGCAGAGGAGGCAGGCUUCGGUGACGCGAUAGCGCCAACGUCCUCUACCUCCGAUGCAUCCCACCACAUGAUGAUGCCUGAAGAGCCUUGGUUUUUUG [G61A A83U A90G] | 0.0238 |
| GACCAAUCUGCCCUCAGAGCUCGAGAACAUCUUCGGAUGCAGAGGAGGCAGGCUUCGGUGACGCGAUAGCGCCCACGUCCUCAACCUCCAAUGCAUCCCACCACAUGAUGAUGCCUGAAGAGCCUUGCUUUUUUG [G61A A74C G128C] | -5.31 |
| GACCAAUCUGCCCUCAGAGCUCGAGAACAUCUUCGGAUGCAGAGGAGGCAGGCUUCGGUUGCGCGAUAGCGCCAACGUCCUCAACCUCCAAUGCAUCCCACCACAUGAUGACGCCUGAAGAGCCUUGGUUUUUUG [G60U U112C] | 1 |
| GACCAAUCUGCCCUCAGAGCUCGAGAACAUCUUCGGAUGCAGAGGAGGCAGGCUUCGGUGACGCGAUAGCGCCAACGUCCUCAACCUCCAAUGCAUCCCACCACGUGAUGAUGCCUGAAGAGCCUUGGUUUUUUG [G61A A105G] | -1.89 |
| GACCAAUCUGCCCUCAGAGCUCGAGAACAUCUUCGGAUGCAGAGGAGGCAGGCUUCGGUGACGCGAUAGCGCCAACGUCCUCAACCUCCAAUGCAUCCCACCACAUGAUGAUGCCUGAAGCGCCUUGGUUUUUUG [G61A A121C] | 1.95 |
| GACCAAUCUGCCCUCAGAGCUCGAGAACAUCUUCGGAUGCAGAGGAGGCAGGCUUCGGUGACGCGAUAGCGCCAACGUCCUCUACCUCCAAUGCAUCCCACCACAUGAUGAUGCCUCAAGAGCCUUGGUUUUUUG [G61A A83U G117C] | -4.17 |
| GACCAAUCUGCCCUCAGAGCUCGAGAACAUCUUCGGAUGCAGAGGAGGCAGGCUUCGGUGACGCGAUAGCGCCAACGUCCUCAACCUCCAAUGCAUCCCACCACAUGAUGAUGCCUGCACAGCCUGGGUUUUUUG [G61A A118C G120C U126G] | -4.35 |
| GACCAAUCUGCCCUCAGAGCUCGAGAACAUCUUCGGAUGCAGAGGAGGCAGGCUUCGGUGACGCGCUAGCGCCAACGCCCUCAACCUGCAAUGCAUCCCACCACAUGAUGAUGCCUGAAGAGCCUUGGUUUUUUG [G61A A66C U78C C88G] | -2.23 |
| GACCAAUCUGCCCUCAGAGCUCGAGAACAUCUUCGGAUGCAGAGGAGGCAGGCUUCGGUUGCGCGAUAGCGCCAACGUCCUCAACCUCCAAUGCAUCCCACCACAUGAUGAGGCCUGAAGGGCCUUGGUUUUAAG [G60U U112G A121G U133A U134A] | 1.66 |
| GACCAAUCUGCCCUCAGAGCUCGAGAACAUCUUCGGAUGCAGAGGAGGCAGGCUUCGGUGACGCGAUAGCGCCAACGUCCUCAACCUCCAAUGCAUCCCACCUCAUGAUGAUCCCUGAAGAGCCUUGGUUUUUUG [G61A A103U G113C] | -6.41 |
| GACCAAUCUGCCCUCAGAGCUCGAGAACAUCUUCGGAUGCAGAGGAGGCAGGCUUCGGUUGCGCGAUAGCGCCAACGUCCUCAACCUCCAAUGCAUCCCACCACAUGAUGAUGCCUGAAGAGCCUUGUUUUUUUG [G60U G128U] | -2.12 |
| GACCAAUCUGCCCUCAGAGCUCGAGAACAUCUUCGGAUGCAGAGGAGGCAGGCUUCGGUUGCGCGAUAGCGCCAACGUCCUCAACCUCCAAUGCAUCCCACCACAUGAUGAUGCCUGAAGAGCCUUGAUUUUUUG [G60U G128A] | -1.69 |
| GACCAAUCUGCCCUCAGAGCUCGAGAACAUCUUCGGAUGCAGAGGAGGCAGGCUUCGGUUGCGCGAUAGCGCCAACGUCCUCAACCUCCAAUGCAUCCCACCACAUGAUGAUGCCUGAAGAGCCUUGGUUUCUUG [G60U U132C] | -0.354 |
| GACCAAUCUGCCCUCAGAGCUCGAGAACAUCUUCGGAUGCAGAGGAGGCAGGCUUCGGUGACGCGAUAGCGCCAACGUCCUCAACCUCCGAUGCAUCCCACCACAUGAUGAUGCCUGAAGAGCCUUGGUUUUUUG [G61A A90G] | -0.68 |
| GACCAAUCUGCCCUCAGAGCUCGAGAACAUCUUCGGAUGCAGAGGAGGCAGGCUUCGGUGACGCGAUAGCGCUAACGACCUCAACCUCCAAUGCAUCCCACCACAUGAUGAUGACUGAAGAGCCUUGGUUUUUUG [G61A C73U U78A C114A] | -2.49 |
